# Data taken from article PMC11615384, “Frequent transitions in self-assembly across the evolution of a central metabolic enzyme” (Nature Communications, 2024).
# Positions count from the first letter of the chain named. In names and notes the source's numbering stands. Several values for one entry are separate records, joined by “and”; a condition that tells them apart may be missing. Equal values may be shown once.
# B1: CS from D. pimensis (Dp) (Deinococcus pimensis) (protein)
# chain: MTTTIAKGLEGVLFTETKLTFINGTEGVLTHLGIPIQEWAEKSTFEELSFALLHGKLPTREELAAFDADLKANRAVPAELITAIRAYPRDVHPMQALRTAASHLGLLDADAEDTSAEGRYRIGVRMIAQFSTIIAAIARAQDGQDPVEPRADLTHAGNFLYMLNGQEPSAEQARLFDIALILHADHGMNASTFTAIATASTLSDMYSSVVSAIGALKGPLHGGANEAVMDMLDEIGTVDAAVPFITQKLDNKEKIMGVGHRVYKYFDPRSRVLRDYAAHVSEKQGKSHYYSILETIEKEIVERLGGKGIYPNVDFYSGVVYSDLGIKKSFFTPIFALARISGWVASVTEYTANNRLLRPDAVYVGARDQHYVEIDERK
# notes: full-length with C-terminal LE-HHHHHH tag, expressed in E. coli BL21(DE3); type I CS, polydisperse oligomer (dimers to >=8 subunits)
# B2: CS from M. sulfidovorans (type III) (Methylophaga sulfidovorans) (protein)
# chain: MSDFLPGLEGVPATKSAISFIDGEKGILSYRGYPLETLAENSTFEETTLLLLDGELPTKKALNDFSQQLKDNYRIKYHIRQMMRHFPHTGHPMDMLQTAVSSLGMFYPGTECLTDANSCEDLDYVRNMTVNIIAQMAPLVAMWEHIRNGWDPVNPKHDLSVAENLLYMFNGEEPDPLMAKIMDVCLILHAEHTLNASTFAALVAGSTLATPYSVISAAIGTLSGPLHGGANQRVVGMLQEIGSPKNVESWVDEKLKNKEVIWGMGHREYKVKDPRATILHKLVEQLVAERGGHLDDMFDTALKLEEVCADRLGHKGVYPNVDFYSGILYSEMGIPEDEFTALFAVARSAGWLAHWREQISDNRIYRPTQIYVGSDMRDYTPIEER
# notes: full-length with C-terminal LE-HHHHHH tag, expressed in E. coli BL21(DE3); type III CS, hexamer (three dimers)
# B3: CS from M. sulfidovorans (type III) (Methylophaga sulfidovorans; W150A) (protein)
# chain: B2 chain with W150A
# notes: as for B2
# B4: non-mitochondrial citrate synthase (nmCS) of P. olsenii (enzyme)
# chain: MDRLNTVAAHVAPTLTITDNRSGKKIDVKVKDGTIRATDLKQLGIQTYDPGYMNTTCCVSRISFIDGNRGVLRYRGYPIEQLAQDSSFTEVAFLLQYGELPTRGQLTQWEQDLMRHSMLHQDVATLTSAFRYDAHPMGMFVSAMAALGTLHPETNPALTSQNIYKDKAVRNKEIARILGSATTLAAMAYRHRMGRPFNTPNSDLGYTENFLYMLDVSHEGTSYRPHPKLVKALDVLFVLHAEHELNCSTSAMRHLTSSNVDVYTACAAAAGALYGPRHGGANEAVLRMLERIGSIENVPTFVDKVKQRKELLMGFGHRVYKHYDPRATIVRKIAEDVFEICGREPLIEVAMDLERIALSDPYFKDRKLYPNVDFYSGLIYKAMGFPTDMFPILFTVPRLAGWLAHWSEWIDDPENRIYRPFQVYKGYDKRDYVQVDERSEKVHSKELTVKRSAFNRRRDASLQSAAADRSEYEWIKD
# B5: A. comosus CS Δ487-513, variant in which the extended C-terminus was deleted (domain or fragment)
# chain: MEGAFDHSALARARLAVLSGHLAAVSAAGGGASPLERSPVSVQEIPPPPRNLGGSLAVIDGRSGKKFEFKISDEGTVRATDFKKITTGKNDKGLKLYDPGYLNTAPVRSSICYIDGDEGILRYRGYPIEELAESSSYPEVAYLLMYGNLPSKSQLADWEFAISQHSAVPQGVLDIIQGMPHDAHPMGVLVCAMSALSVFHPDANPALRGQDLYKSKQLRDKQIVRILGKVPTIAAAAYLRLAGRPPVLPSNNFSYSENFLYMLDSLGNRSYKPNTRLARVLDILFILHAEHEMNCSTAAARHLASSGVDVFTALAGAVGALYGPLHGGANEAVLKMLNEIGTVENIPDFIEGVKNRKRKMSGFGHRVYKNYDPRAKVIRKLAEEVFSIVGRDPLIEVAIALEKAALSDEYFIKRKLYPNVDFYSGLIYRAMGFPTEFFPVLFAIPRMAGYLAHWRESLDDPDTKIMRPQQVYTGVWLRHYTPLQERLEHHHHHH
# Assays:
# [1] = target: T1, CS from A. comosus (nmCS) (Ananas comosus, UniProt A0A6P5F0R3); assay: mass photometry, oligomeric state shift; format: binding; conditions: 10 min preincubation with high acetyl-CoA; octamers shift to mix of hexamers and octamers
# T1 construct: gene LOC109710921; non-mitochondrial CS with C-terminal LE-HHHHHH tag, expressed in E. coli BL21(DE3); octamer (ring of four dimers); C-terminus extends to residue 513
# T1 sequence (A0A6P5F0R3 entry or part of it): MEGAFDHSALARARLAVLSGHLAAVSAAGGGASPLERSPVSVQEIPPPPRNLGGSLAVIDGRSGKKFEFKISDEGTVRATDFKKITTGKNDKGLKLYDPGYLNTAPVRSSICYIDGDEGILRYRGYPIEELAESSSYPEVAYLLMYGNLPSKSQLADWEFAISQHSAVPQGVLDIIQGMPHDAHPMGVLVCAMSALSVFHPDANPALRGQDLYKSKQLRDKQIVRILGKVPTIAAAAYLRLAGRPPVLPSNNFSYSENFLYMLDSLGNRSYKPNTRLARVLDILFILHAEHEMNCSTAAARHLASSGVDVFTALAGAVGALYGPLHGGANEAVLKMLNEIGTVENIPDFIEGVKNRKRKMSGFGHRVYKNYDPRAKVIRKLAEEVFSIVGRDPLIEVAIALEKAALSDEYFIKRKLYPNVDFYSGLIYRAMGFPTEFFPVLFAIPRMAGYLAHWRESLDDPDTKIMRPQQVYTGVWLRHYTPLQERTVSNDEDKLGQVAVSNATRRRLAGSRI
# [2] = target: CS from a Myxococcota species (a Myxococcota species); assay: mass photometry; self-assembly of the purified protein in solution; final concentration 12.5 to 50 nM; PBS or 20 mM Tris, 200 mM NaCl pH 7.5; OneMP or TwoMP
# [3] = target: citrate synthase (type III CS) from M. sulfidovorans (M. sulfidovorans); assay: as above
# [4] = target: citrate synthase from M. sulfidovorans W150A (M. sulfidovorans); assay: as above
# [5] = target: non-mitochondrial citrate synthase (nmCS) of Ananas comosus (Ananas comosus); assay: as above
# [6] = target: non-mitochondrial citrate synthase (nmCS) of Ananas comosus (Ananas comosus); assay: mass photometry; with high quantities of acetyl-CoA: prediluted protein (2 µM) incubated for 10 min with the substrate, same concentration in the buffer of the gasket
# [7] = target: non-mitochondrial citrate synthase (nmCS) of C. fasciculata (C. fasciculata); assay: mass photometry; self-assembly of the purified protein in solution; final concentration 12.5 to 50 nM; PBS or 20 mM Tris, 200 mM NaCl pH 7.5; OneMP or TwoMP
# [8] = target: non-mitochondrial citrate synthase (nmCS) of Chlamydomonas reinhardtii (Chlamydomonas reinhardtii); assay: as above
# [9] = target: type II citrate synthase of C. woesi (C. woesi); assay: as above
# [10] = target: type II citrate synthase of F. taffensis (F. taffensis); assay: as above
# [11] = substrate: O=C(O)CC(=O)C(=O)O; assay: purified protein; format: biochemical, Deinococcus pimensis; conditions: 50 mM Tris pH 7.5, 10 mM KCl, 25 °C, 25 nM enzyme, unseparated sample, varied substrate not named in main text
# [12] = substrate: O=C(O)CC(=O)C(=O)O; assay: purified protein; format: biochemical, Methylophaga sulfidovorans; conditions: 50 mM Tris pH 7.5, 10 mM KCl, 25 °C, 25 nM enzyme, varied substrate not named in main text
# [13] = target: the molecule itself; assay: mass photometry; self-assembly of the purified protein in solution; final concentration 12.5 to 50 nM; PBS or 20 mM Tris, 200 mM NaCl pH 7.5; OneMP or TwoMP
molecule,measurement,setting,value
CC(=O)SCCNC(=O)CCNC(=O)[C@H](O)C(C)(C)COP(=O)(O)OP(=O)(O)OC[C@H]1O[C@@H](n2cnc3c(N)ncnc32)[C@H](O)[C@@H]1OP(=O)(O)O [acetyl-CoA],"mass photometry, oligomeric state shift",[1],shift the oligomeric state of the CS from A. comosus from octamers
CS from a Myxococcota species (enzyme),stoichiometry N,[2],2
citrate synthase (type III CS) from M. sulfidovorans (enzyme),stoichiometry N,[3],6
citrate synthase from M. sulfidovorans W150A (enzyme),stoichiometry N,[4],2
non-mitochondrial citrate synthase (nmCS) of Ananas comosus (enzyme),stoichiometry N,[5],8
same,stoichiometry N,[6],6 and 8
non-mitochondrial citrate synthase (nmCS) of C. fasciculata (enzyme),stoichiometry N,[7],6
non-mitochondrial citrate synthase (nmCS) of Chlamydomonas reinhardtii (enzyme),stoichiometry N,[8],2
type II citrate synthase of C. woesi (enzyme),stoichiometry N,[9],2
type II citrate synthase of F. taffensis (enzyme),stoichiometry N,[10],2
B1,Km,[11],25.4 ± 3.1 µM
same,kcat,[11],36.6 ± 1.1 s⁻¹
B2,Km,[12],50.5 ± 5.2 µM
same,kcat,[12],33.3 ± 1.8 s⁻¹
B3,Km,[12]; dimeric variant,36.7 ± 5.7 µM
same,kcat,[12]; dimeric variant,26.7 ± 1.1 s⁻¹
B4,stoichiometry N,[13],6
B5,stoichiometry N,[13],2
